Results: paper doi:10.1101/2021.02.02.429416

Experiments:
KP-VR2 (human) [1] = experiment: BLI
Aflibercept = experiment: ELISA
KP-VR2 (human) [2] = experiment: ELISA

B1: Human PlGF-1 (ligand)
chain: LPAVPPQQWALSAGNGSSEVEVVPFQEVWGRSYCRALERLVDVVSEYPSEVEHMFSPSCVSLLRCTGCCGDENLHCVPVETANVTMQLLKIRSGDRPSYVELTFSQHVRCECRPLREKMKPERCGDAVPRR
B1 gave a Kd (KP-VR2 (human) [1]) of 0.78 nM, an EC50 (Aflibercept) of 30.5 nM and an EC50 (KP-VR2 (human) [2]) of 2.39 nM.
